Measurements: US20150376271 (published 2015)
Several values for one entry are separate records, joined by “and”; a condition that tells them apart may be missing. Equal entries are not always repeated. Where two headings read alike, the source gives them in different places.

T1: PDGF-BB (human, UniProt P01127)
T1 chain: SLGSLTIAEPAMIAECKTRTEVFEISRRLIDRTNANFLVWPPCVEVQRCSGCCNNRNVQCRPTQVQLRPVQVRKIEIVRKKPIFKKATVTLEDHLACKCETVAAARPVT

T2: VEGF121 (human, UniProt P15692)
T2 chain: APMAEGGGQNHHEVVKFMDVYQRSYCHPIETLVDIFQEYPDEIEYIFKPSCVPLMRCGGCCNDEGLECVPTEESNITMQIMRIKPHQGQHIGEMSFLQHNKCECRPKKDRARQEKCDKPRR

T3: VEGFA-165 (human, UniProt P15692)
T3 chain: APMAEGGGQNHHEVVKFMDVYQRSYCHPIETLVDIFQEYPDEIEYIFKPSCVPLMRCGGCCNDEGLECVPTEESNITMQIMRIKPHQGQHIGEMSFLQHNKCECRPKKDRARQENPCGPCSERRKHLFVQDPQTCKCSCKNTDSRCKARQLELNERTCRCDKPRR


Experiments:
PDGF-BB = target: T1, PDGF-BB; assay: SPR, 25C
VEGF121 [1] = target: T2, VEGF121; assay: SPR
VEGF121 [2] = target: T2, VEGF121; assay: SPR
VEGFA-165 [3] = target: T3, VEGFA-165; assay: SPR
VEGFA-165 [4] = target: T3, VEGFA-165; assay: competition
VEGFA-165 [5] = target: T3, VEGFA-165; assay: competition

Row | Kd (VEGF121 [1]) [nM] | Kd (VEGF121 [2]) | Kd (VEGFA-165 [3]) [nM] | IC50 (VEGFA-165 [5]) [nM] | Binder | further results
1 | 0.225 | 0.23 nM and 0.219 nM |  |  | TAF443 (antibody) chain 1: LVVTPPGPELVLNVSSTFVLTCSGSAPVVWERMSQEPPQEMAKAQDGTFSSVLTLTNLTGLDTGEYFCTHNDSRGLETDERKRLYIFVPDPTVGFLPNDAEELFIFLTEITEITIPCRVTDPQLVVTLHEKKGDVALPVPYDHQRGFSGIFEDRSYICKTTIGDREVDSDAYYVYRLQVSSINVSVNAVQTVVRQGENITLMCIVIGNEVVNFEWTYPRKESGRLVEPVTDFLLDMPYHIRSILHIPSAELEDSGTYTCNVTESVNDHQDEKAINITVVESGGGGGSGGGGSEVQLVESGGGLVQPGGSLRLSCAASGYDFTHYGMNWVRQAPGKGLEWVGWINTYTGEPTYAADFKRRFTFSLDTSKSTAYLQMNSLRAEDTAVYYCAKYPYYYGTSHWYFDVWGQGTLVTVSSASTKGPSVFPLAPSSKSTSGGTAALGCLVKDYFPEPVTVSWNSGALTSGVHTFPAVLQSSGLYSLSSVVTVPSSSLGTQTYICNVNHKPSNTKVDKKVEPKSCDKTHTCPPCPAPEAAGAPSVFLFPPKPKDTLMISRTPEVTCVVVDVSHEDPEVKFNWYVDGVEVHNAKTKPREEQYNSTYRVVSVLTVLHQDWLNGKEYKCKVSNKALPAPIEKTISKAKGQPREPQVYTLPPSREEMTKNQVSLTCLVKGFYPSDIAVEWESNGQPENNYKTTPPVLDSDGSFFLYSKLTVDKSRWQQGNVFSCSVMHEALHNHYTQKSLSCSPGK chain 2: not shown | 
2 | 0.231 | 0.28 nM and 0.182 nM |  |  | TAF347 (antibody) chain 1: LVVTPPGPELVLNVSSTFVLTCSGSAPVVWERMSQEPPQEMAKAQDGTFSSVLTLTNLTGLDTGEYFCTHNDSRGLETDERKRLYIFVPDPTVGFLPNDAEELFIFLTEITEITIPCRVTDPQLVVTLHEKKGDVALPVPYDHQRGFSGIFEDRSYICKTTIGDREVDSDAYYVYRLQVSSINVSVNAVQTVVRQGENITLMCIVIGNEVVNFEWTYPRKESGRLVEPVTDFLLDMPYHIRSILHIPSAELEDSGTYTCNVTESVNDHQDEKAINITVVESGGGGGSGGGGSEVQLVESGGGLVQPGGSLRLSCAASGYDFTHYGMNWVRQAPGKGLEWVGWINTYTGEPTYAADFKRRFTFSLDTSKSTAYLQMNSLRAEDTAVYYCAKYPYYYGTSHWYFDVWGQGTLVTVSSASTKGPSVFPLAPSSKSTSGGTAALGCLVKDYFPEPVTVSWNSGALTSGVHTFPAVLQSSGLYSLSSVVTVPSSSLGTQTYICNVNHKPSNTKVDKKVEPKSCDKTHTCPPCPAPEAAGAPSVFLFPPKPKDTLMISRTPEVTCVVVDVSHEDPEVKFNWYVDGVEVHNAKTKPREEQYNSTYRVVSVLTVLHQDWLNGKEYKCKVSNKALPAPIEKTISKAKGQPREPCVYTLPPSREEMTKNQVSLTCLVKGFYPSDIAVEWESNGQPENNYKTTPPVLDSDGSFFLYSKLTVDKSRWQQGNVFSCSVMHEALHNHYTQKSLSLSPGK chain 2: not shown | 

Second part, the binder before the results:

Row | Binder | Kd (VEGF121 [1]) [nM] | Kd (VEGF121 [2]) | Kd (VEGFA-165 [3]) [nM] | IC50 (VEGFA-165 [5]) [nM] | further results
3 | OG1321 (antibody, TAF443 protein, unconjugated) chain 1: LVVTPPGPELVLNVSSTFVLTCSGSAPVVWERMSQEPPQEMAKAQDGTFSSVLTLTNLTGLDTGEYFCTHNDSRGLETDERKRLYIFVPDPTVGFLPNDAEELFIFLTEITEITIPCRVTDPQLVVTLHEKKGDVALPVPYDHQRGFSGIFEDRSYICKTTIGDREVDSDAYYVYRLQVSSINVSVNAVQTVVRQGENITLMCIVIGNEVVNFEWTYPRKESGRLVEPVTDFLLDMPYHIRSILHIPSAELEDSGTYTCNVTESVNDHQDEKAINITVVESGGGGGSGGGGSEVQLVESGGGLVQPGGSLRLSCAASGYDFTHYGMNWVRQAPGKGLEWVGWINTYTGEPTYAADFKRRFTFSLDTSKSTAYLQMNSLRAEDTAVYYCAKYPYYYGTSHWYFDVWGQGTLVTVSSASTKGPSVFPLAPSSKSTSGGTAALGCLVKDYFPEPVTVSWNSGALTSGVHTFPAVLQSSGLYSLSSVVTVPSSSLGTQTYICNVNHKPSNTKVDKKVEPKSCDKTHTCPPCPAPEAAGAPSVFLFPPKPKDTLMISRTPEVTCVVVDVSHEDPEVKFNWYVDGVEVHNAKTKPREEQYNSTYRVVSVLTVLHQDWLNGKEYKCKVSNKALPAPIEKTISKAKGQPREPQVYTLPPSREEMTKNQVSLTCLVKGFYPSDIAVEWESNGQPENNYKTTPPVLDSDGSFFLYSKLTVDKSRWQQGNVFSCSVMHEALHNHYTQKSLSCSPGK chain 2: not shown |  |  |  |  | Kd (PDGF-BB): 0.014 nM
4 | OG1448 (antibody) chain 1: LVVTPPGPELVLNVSSTFVLTCSGSAPVVWERMSQEPPQEMAKAQDGTFSSVLTLTNLTGLDTGEYFCTHNDSRGLETDERKRLYIFVPDPTVGFLPNDAEELFIFLTEITEITIPCRVTDPQLVVTLHEKKGDVALPVPYDHQRGFSGIFEDRSYICKTTIGDREVDSDAYYVYRLQVSSINVSVNAVQTVVRQGENITLMCIVIGNEVVNFEWTYPRKESGRLVEPVTDFLLDMPYHIRSILHIPSAELEDSGTYTCNVTESVNDHQDEKAINITVVESGGGGGSGGGGSEVQLVESGGGLVQPGGSLRLSCAASGYDFTHYGMNWVRQAPGKGLEWVGWINTYTGEPTYAADFKRRFTFSLDTSKSTAYLQMNSLRAEDTAVYYCAKYPYYYGTSHWYFDVWGQGTLVTVSSASTKGPSVFPLAPSSKSTSGGTAALGCLVKDYFPEPVTVSWNSGALTSGVHTFPAVLQSSGLYSLSSVVTVPSSSLGTQTYICNVNHKPSNTKVDKKVEPKSCDKTHTCPPCPAPEAAGAPSVFLFPPKPKDTLMISRTPEVTCVVVDVSHEDPEVKFNWYVDGVEVHNAKTKPREEQYNSTYRVVSVLTVLHQDWLNGKEYKCKVSNKALPAPIEKTISKAKGQPREPQVYTLPPSREEMTKNQVSLTCLVKGFYPSDIAVEWESNGQPENNYKTTPPVLDSDGSFFLYSKLTVDKSRWQQGNVFSCSVMHEALHNHYTQKSLSCSPGK chain 2: not shown |  |  | 0.0051 | 8.5 | IC50 (VEGFA-165 [4]): 10.1 nM
5 | OG1321 (antibody) chain 1: LVVTPPGPELVLNVSSTFVLTCSGSAPVVWERMSQEPPQEMAKAQDGTFSSVLTLTNLTGLDTGEYFCTHNDSRGLETDERKRLYIFVPDPTVGFLPNDAEELFIFLTEITEITIPCRVTDPQLVVTLHEKKGDVALPVPYDHQRGFSGIFEDRSYICKTTIGDREVDSDAYYVYRLQVSSINVSVNAVQTVVRQGENITLMCIVIGNEVVNFEWTYPRKESGRLVEPVTDFLLDMPYHIRSILHIPSAELEDSGTYTCNVTESVNDHQDEKAINITVVESGGGGGSGGGGSEVQLVESGGGLVQPGGSLRLSCAASGYDFTHYGMNWVRQAPGKGLEWVGWINTYTGEPTYAADFKRRFTFSLDTSKSTAYLQMNSLRAEDTAVYYCAKYPYYYGTSHWYFDVWGQGTLVTVSSASTKGPSVFPLAPSSKSTSGGTAALGCLVKDYFPEPVTVSWNSGALTSGVHTFPAVLQSSGLYSLSSVVTVPSSSLGTQTYICNVNHKPSNTKVDKKVEPKSCDKTHTCPPCPAPEAAGAPSVFLFPPKPKDTLMISRTPEVTCVVVDVSHEDPEVKFNWYVDGVEVHNAKTKPREEQYNSTYRVVSVLTVLHQDWLNGKEYKCKVSNKALPAPIEKTISKAKGQPREPQVYTLPPSREEMTKNQVSLTCLVKGFYPSDIAVEWESNGQPENNYKTTPPVLDSDGSFFLYSKLTVDKSRWQQGNVFSCSVMHEALHNHYTQKSLSCSPGK chain 2: not shown |  |  | 0.0098 | 12.5 | 
